From patent US6423503

Biological target: α1antichymotrypsin (ACT) (UniProt P01011)
Sequence (P01011 24-423): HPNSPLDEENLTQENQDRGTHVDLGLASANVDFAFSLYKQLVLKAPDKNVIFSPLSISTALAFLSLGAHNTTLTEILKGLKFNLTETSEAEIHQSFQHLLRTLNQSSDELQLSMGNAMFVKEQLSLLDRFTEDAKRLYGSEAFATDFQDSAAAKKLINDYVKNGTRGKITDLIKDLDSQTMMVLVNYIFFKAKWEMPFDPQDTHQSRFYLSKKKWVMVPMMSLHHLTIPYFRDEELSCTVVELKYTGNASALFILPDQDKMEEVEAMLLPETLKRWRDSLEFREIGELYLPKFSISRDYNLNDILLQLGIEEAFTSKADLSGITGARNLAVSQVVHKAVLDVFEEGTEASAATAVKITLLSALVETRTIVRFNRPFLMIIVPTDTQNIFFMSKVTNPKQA

In the case of “prostate-specific antigen (PSA), mature form”, the “cleavage of ACT (HIC-HPLC peak 1)” value was “Peak 1 is inactive ACT which has been cleaved by PSA”.
